Assay results from the supplement of paper PMC12042874.
± gives the uncertainty stated by the source.

Experiment: amyloid nucleation score (Sup35N fusion, yeast selection) (log enrichment); library NNK3; higher = more nucleation; inactive = no reads after selection
Summary of the method: (§1)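 Three technical output replicates were used for random libraries. Psi-negative yeast expressing peptides of 20 random codons fused to Sup35N were induced with 100 μM copper sulfate for 24 hours and grown 7 days at 30°C on medium lacking adenine and uracil, and input and output plasmid inserts were Illumina-sequenced, excluding sequences with under 100 input reads. The nucleation score is the DiMSum log enrichment of output over input reads, centred on the mode score of non-aggregating sequences.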
With ELHYPVLVDS the amyloid nucleation score was “inactive”. With SYKPLVMWLMSGVSASGLMC the amyloid nucleation score was “inactive”. With ALCKCALG the amyloid nucleation score was “inactive”. In the case of RGDVLRFTWCSEPGCQRRTT, the amyloid nucleation score is reported as “inactive”. For WVHCSPGDRSFTLGTPSFHK, the amyloid nucleation score was “inactive”. In the case of SWSFDWFQSIVVGYLTCALA, the amyloid nucleation score is reported as “inactive”. In the case of NFGQNCN, the amyloid nucleation score is reported as -0.48 ± 0.57. For SCIYTMAIRNNKVRCYFRAG, the amyloid nucleation score was “inactive”. In the case of LSNTRLRNMFSRDRGASLEG, the amyloid nucleation score is reported as “inactive”. With GLRTFIG the amyloid nucleation score was “inactive”. For GTTSFVLVCVCWSG, the amyloid nucleation score was -0.409 ± 0.95.

Experiment: amyloid nucleation score (Sup35N fusion, yeast selection) (log enrichment); library NNK2; higher = more nucleation; inactive = no reads after selection
Summary of the method: as §1
KRTTLWTARSRLCERTLNCS showed an amyloid nucleation score of 0.324 ± 0.24. NVTVAWFVNLSPWF showed an amyloid nucleation score of 7.288 ± 0.045. For YIKFIFCP, the amyloid nucleation score was “inactive”. In the case of YMDSKSNLARTFVRVCGLLG, the amyloid nucleation score is reported as 0.097 ± 1.1. LSLMHAQHSTMLDNSMTM gave an amyloid nucleation score of 0.621 ± 0.56. YVIVVGWPR showed an amyloid nucleation score of 9.408 ± 0.073. With WDVKRIRKVSFDFVSRGWKG the amyloid nucleation score was -0.293 ± 0.32. Substance SSSRGRVCP has an amyloid nucleation score of 0.012 ± 0.63. DTGSPDGWAQWLPYSEFLGM showed an amyloid nucleation score of -0.283 ± 0.65. SRKGVTLLVLNNSLTHRSCN gave an amyloid nucleation score of 3.72 ± 0.049. NSVAIVQIVGASAWRGNLL gave an amyloid nucleation score of 5.128 ± 0.046. ISGVSDGQMGFWRNEMGQGS showed an amyloid nucleation score of 0.28 ± 0.39. FEEYEGLLDVSFKRPSFYCI showed an amyloid nucleation score of 0.456 ± 0.6. In the case of LRLTRVYSSYRESVKKKI, the amyloid nucleation score is reported as 0.418 ± 0.21. With EERVCLSPSDSSSRMLGQKV the amyloid nucleation score was -0.078 ± 0.35. For LSARFHHAKFLNYSDSRVGQ, the amyloid nucleation score was “inactive”. With FMLRICPGYAKGRCISWHSR the amyloid nucleation score was 0.396 ± 0.46. TMVALKI showed an amyloid nucleation score of -0.15 ± 0.44. With WIIHMSSEAYYPSSFGRIVI the amyloid nucleation score was -0.872 ± 1.1. In the case of RYPVESCVHSFLESRVRDQG, the amyloid nucleation score is reported as 0.881 ± 0.45. With RLRQEYGLLLRRGKSVP the amyloid nucleation score was 0.252 ± 0.35. Substance ANMTVVGWFCIRR has an amyloid nucleation score of 6.146 ± 0.058. CSITRLGSVHYLSRYIFV showed an amyloid nucleation score of 3.74 ± 0.083. For TDISQEGPVNIL, the amyloid nucleation score was “inactive”. Substance ICVYSTRTDKMSCRPF has an amyloid nucleation score of 0.856 ± 0.6. RIISHDSCRVIFGKFRVDVW gave an amyloid nucleation score of 1.23 ± 0.57. In the case of FFAGKCGIMTSLRDLSVAFG, the amyloid nucleation score is reported as -0.071 ± 0.65. YPVIPGISRLLNTQRIVFLG gave an amyloid nucleation score of -0.226 ± 0.21. Work on TTGHQLNDCYLKGCFSEWIL yielded an amyloid nucleation score of -0.073 ± 1. Substance MYLLVV has an amyloid nucleation score of 0.786 ± 0.41. In the case of NFSYASNTEHRPVSNIFWEL, the amyloid nucleation score is reported as -1.33 ± 0.62. Substance RWYILILGFRGKIIYPFRLG has an amyloid nucleation score of 0.157 ± 1. Work on NGIKFRGMVVTP yielded an amyloid nucleation score of 0.294 ± 0.65. In the case of DKSAVMVFNRRYVPWFGIRY, the amyloid nucleation score is reported as “inactive”. MASSFQFSDTGSELTSREAR gave an amyloid nucleation score of -0.237 ± 0.79. Work on FMDWKLYSDPWAKF yielded an amyloid nucleation score of -0.639 ± 0.37. DRLVSLAYLMWFGKMGWDKG gave an amyloid nucleation score of 0.05 ± 0.51. Work on GYGWKLQMTGGESCVGSHLR yielded an amyloid nucleation score of 0.388 ± 0.66. MPHPLLLSFEENLIDCLYDH gave an amyloid nucleation score of -0.693 ± 0.64. For WSTLGIDVSSCT, the amyloid nucleation score was -1.52 ± 0.54. GETLSTDYLWQPTHA showed an amyloid nucleation score of 0.877 ± 0.58. SCQENICENWFWLLHD showed an amyloid nucleation score of -0.321 ± 0.45. Work on MFCIWRE yielded an amyloid nucleation score of 0.907 ± 0.2. In the case of IMLAVYPIIEGFIVDNMHRI, the amyloid nucleation score is reported as -1.25 ± 1.1. Work on LLAKSLDTGILD yielded an amyloid nucleation score of 6.487 ± 0.025. Work on RGFCN yielded an amyloid nucleation score of -1 ± 1.1. In the case of LGSGVILLVY, the amyloid nucleation score is reported as -0.643 ± 1. TFAVFSYLRFIATNSGNIKA gave an amyloid nucleation score of -0.606 ± 0.48. SRMVDR gave an amyloid nucleation score of 0.345 ± 0.45. Substance TVSYCVAYSMQQMLS has an amyloid nucleation score of -0.072 ± 1.1. For FAYISRFKGG, the amyloid nucleation score was 4.22 ± 0.059. Substance RSSCRRNSYLRQLVMSLVRY has an amyloid nucleation score of -0.105 ± 1.1. QKEENSWPGLIRCNLGVREG gave an amyloid nucleation score of 0.092 ± 0.22. With GYWTGELH the amyloid nucleation score was “inactive”. VRMMCLQGATTGATNSPSNR showed an amyloid nucleation score of -0.526 ± 0.37. Substance MRFPGSGGRCLMTFLRLEWV has an amyloid nucleation score of 0.329 ± 0.28. GYCQVKSGCCSGEECCFWMI gave an amyloid nucleation score of 3.68 ± 0.099. In the case of IVQRLPVFKFLMYELCLLNG, the amyloid nucleation score is reported as -0.894 ± 0.38. For CAVRF, the amyloid nucleation score was 0.498 ± 0.64. For LCFYK, the amyloid nucleation score was 0.388 ± 0.32. Work on LMYVGFTRMRKKINRKVYLV yielded an amyloid nucleation score of 3.19 ± 0.1. FNRPAQNGLAKYWYWIQ gave an amyloid nucleation score of 0.142 ± 0.42. Work on LYWFMD yielded an amyloid nucleation score of -1.16 ± 1.1. Substance DFCRQLWTKNKNVLRFICNS has an amyloid nucleation score of -0.342 ± 1. GGDVNGVSCYGGDVGLSAKG gave an amyloid nucleation score of 0.616 ± 0.25. VPSSNFVWVFLRLKS showed an amyloid nucleation score of -0.996 ± 0.49. SVWVCPPLFGQMCAGVTNNR gave an amyloid nucleation score of -0.014 ± 0.41. With HVYVGL the amyloid nucleation score was -0.578 ± 1.1. WEDGTFEV gave an amyloid nucleation score of -0.219 ± 0.61. Substance LPWHICLVHPR has an amyloid nucleation score of 1.81 ± 0.078. TCGTVSNSRASRQFESSSNA gave an amyloid nucleation score of 0.633 ± 0.18. For LSNRSYFTSTAWYEKNRPA, the amyloid nucleation score was -0.293 ± 0.26. Work on INGCNQCALP yielded an amyloid nucleation score of -0.408 ± 1. Work on MRLEWNRGLLCDDSYARTAR yielded an amyloid nucleation score of 0.83 ± 0.41. LQDLTWRLCFKVWCDHSPEN gave an amyloid nucleation score of 4.08 ± 0.091. With RWIYLGYSLCLDVLLYCIEL the amyloid nucleation score was 4.07 ± 0.06. Work on GHAIWSSIVFVGWNLRGDS yielded an amyloid nucleation score of 0.065 ± 0.46. Substance VSAKNIMSSAAER has an amyloid nucleation score of 0.451 ± 0.35. For QELYSDLPRPSGSPLQLWAK, the amyloid nucleation score was -0.246 ± 0.76. FYNNPDGDRVDVRSCCYYMW showed an amyloid nucleation score of 7.19 ± 0.073. With TWKYDRMVGKIVGLALRVVT the amyloid nucleation score was 0.643 ± 0.43. With LLGPYKAHTQKYCWSSYV the amyloid nucleation score was -0.287 ± 0.56. TMKHPDMS showed an amyloid nucleation score of -0.152 ± 0.55. IDHINF gave an amyloid nucleation score of -0.524 ± 0.64. Work on VVTNCAALVNWRFFYLCNSY yielded an amyloid nucleation score of 3.93 ± 0.054. For LIRVILDGGKGKAGNTWVLQ, the amyloid nucleation score was 5.17 ± 0.098. In the case of YFMLRSVTL, the amyloid nucleation score is reported as 3.75 ± 0.1. NDGLSILVASNMCLSFAWAW showed an amyloid nucleation score of 5.109 ± 0.04. CMFVILMYLHQGRKLNAVPS gave an amyloid nucleation score of -1.02 ± 1.1. For HQVSGSDWPRSDYLRCLTIA, the amyloid nucleation score was 1.82 ± 0.19. Substance RRHEPVPSSK has an amyloid nucleation score of 0.398 ± 0.66. In the case of VRARYASLCHGIAAEGIVGV, the amyloid nucleation score is reported as 0.506 ± 0.28. For FFMCMQVWLRVFYVRGM, the amyloid nucleation score was -1.5 ± 0.36. In the case of KVFLWIMLWAMPHTSSGFKP, the amyloid nucleation score is reported as -0.305 ± 0.48. Substance GASSPGSAMLTVGILEVVVG has an amyloid nucleation score of -0.375 ± 0.31. For LRYNIMWKQHNATAYDEYRA, the amyloid nucleation score was 3.65 ± 0.12. Substance VTDWACGMILIYVLRKILVM has an amyloid nucleation score of 0.461 ± 0.47. VIRTPILGYWSCIGTFNVFW showed an amyloid nucleation score of 8.167 ± 0.044. MLYVAVTS showed an amyloid nucleation score of 0.459 ± 0.25. FLGSVSVLLDKSSSGVNSKR gave an amyloid nucleation score of -0.284 ± 1.1. VLSRFLASKRNCPVPDSLG gave an amyloid nucleation score of 0.093 ± 0.29. Work on SLTVTDIKLGHGRV yielded an amyloid nucleation score of 6.2 ± 0.04. With TSIIVTMLDPYWVISNSCAH the amyloid nucleation score was 5.701 ± 0.038. DFTFWCEYSSSPVKKYVIDC showed an amyloid nucleation score of 0.736 ± 0.18. Work on PNPLSMLRLYRNKASVFSIK yielded an amyloid nucleation score of 0.745 ± 0.41. With KPVGPVYAS the amyloid nucleation score was -0.262 ± 0.48. For IMNRSSSG, the amyloid nucleation score was 1.03 ± 0.36. GLQFSATISYERPVWGGVLR showed an amyloid nucleation score of 4.64 ± 0.066. In the case of FFYEFFSHICLGQERGWPRV, the amyloid nucleation score is reported as “inactive”. Substance VWTCIVFSR has an amyloid nucleation score of 6.22 ± 0.074. With PVNWGQGITTKALWYMTLRF the amyloid nucleation score was -0.417 ± 1.1. For NVLWIDLSRVKVVDGNRSPE, the amyloid nucleation score was 6.342 ± 0.061. WTKEAKIYSCFCSHF gave an amyloid nucleation score of 8.663 ± 0.08. In the case of FYGFL, the amyloid nucleation score is reported as “inactive”. For KPFHLIKTWKQLLLEKGGPN, the amyloid nucleation score was -0.157 ± 0.28. DIFALYFA gave an amyloid nucleation score of -1.16 ± 0.63. In the case of HTTASATPYFAGQV, the amyloid nucleation score is reported as 0.042 ± 0.38.
